# According to patent US20220267458A1 (Innovent, published 2022):
# Where a chain is given by its changes, count along the chain named.
# T1: human GITR-His (human, UniProt Q9Y5U5 26-161)
# T1 construct: Bought from Acro biosystems; also called GITR-His (Acro biosystems); antigen GITR-His
# T1 sequence: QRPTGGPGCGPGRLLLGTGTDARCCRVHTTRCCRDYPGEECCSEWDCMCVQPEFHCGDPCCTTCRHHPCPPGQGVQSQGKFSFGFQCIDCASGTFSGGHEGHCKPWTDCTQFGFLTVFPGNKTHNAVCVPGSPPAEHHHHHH
# B1: Nb-04 (VHH)
# VHH: QVQLQESGGGSVQAGGSLRLSCTASGFTVDDSGMGWYRQAPGNECELVSTISSDGSTYYADSVKGRFTISQDNAKNTVYLQMNSLKPEDTAVYYCAAPRVGVGWVRPCDYEYNYWGQGTQVTVSS
# notes: Tested as crude extract from E. coli (osmotic shock)
# B2: Nb-11 (VHH)
# VHH: B1 VHH with A14T, V29F, D31A, S32A, G33D, T50I
# notes: as for B1
# B3: Nb-05 (VHH)
# VHH: QVQLQESGGGLVQPGGSLRLSCAASGFTFSNKVMSWVRQAPGKGFEWVSSIARGGDWTTYADSVEGRFTISRDNAKNTLYLQLNSLKTEDTAMYYCAQAENWKTPPGQGTQVTVSS
# notes: as for B1
# B4: Nb-06 (VHH)
# VHH: QVQLQESGGGSVQAGGSLRLSCAASGYAYTRNCMGWFRQAPGKEREEVATINLGGGSTYYADSVKGRFAISQDNAKNTVYLQMNNLKPEDTAMYYCAAIAQYGGSLCSNFGWYNLWGQGTQVTVSS
# notes: as for B1
# B5: Nb-07 (VHH)
# VHH: QVQLQESGGGLVQAGGSLKLSCTVSGFAFGSSHMSWVRRAPGKGLEWVSTIHSGGGFGDYANSVQGRFTISRDVAKNTLYLQMNSLKPEDTAIYYCALATDWRKPPGQGTQVTVSS
# notes: as for B1
# B6: Nb-10 (VHH)
# VHH: B5 VHH with A14P, K19R, T23A, V24A
# notes: as for B1
# B7: Nb-08 (VHH)
# VHH: QVQLQESGGGSVQAGGSLRLSCAASGYTSSRKYIGWFRQAPGKQREWVAGIDTGAGGTCTIASVQGRFTISQDVAKNTLYLQIDSLKPEDTAVYYCAADWVRGGFCSGDADFRYWGQGTQVTVSS
# notes: as for B1
# B8: Nb-09 (VHH)
# VHH: QVQLQESGGGLVQPGGSLRLSCGASGFTFSSTAMWWFRQAPGKGLEWVSSITSDVSGTYYADSVQGRFTISRDNGKNTVYLQMNSLRSEDTALYYCATSCGFSGGTWSCKYRGQGTQVTVSS
# notes: as for B1
# B9: Nb-02 (VHH)
# VHH: QVQLQESGGGSVQAGGSLRLSCAASRDTYTRYFMGWFRQTPGKEGEGVAVLLPGGDYTFYADSVKGRFTITQDSAKNTVYLQMNSLKPEDTAMYYCAADVTVGSRWSQASNYNYWGQGTQVTVSS
# notes: as for B1
# B10: Nb-12 (VHH)
# VHH: B9 VHH with G45P, D56A
# notes: as for B1
# B11: Nb-13 (VHH)
# VHH: QVQLQESGGGSVQAGGSLRLSCTASSNTGRMGWFRQAPGKEREGVTAVDNFGRTNYAKYVKGRFTISKDNAKNTLYLQMNSLKPEDTAMYYCAADPWGRGAALTPNEYIYWGQGTQVTVSS
# notes: as for B1
# B12: Nb-14 (VHH)
# VHH: QVQLQEFGGGSVQAGGSLRLSCVASGFTFSNYCMGWFRQDPGKEREAVARIFVDGSTRYADAVKGRFTISKDNAKNTLYVQINSLKPEDTAMYYCTTPFPWTLCVDGPGAYKYWGQGTQVTVSS
# notes: as for B1
# B13: Nb-01 (VHH)
# VHH: QVQLQESGGGLVQPGGSLRLSCTASGLTFDDYAMGWFRQAPGKGREGVSLITWSGSSTYYADSVKGRFTVSRDTATNTLVLQMNSLKPEDTAMYYCAADPRSGGYYSSPPPPAVYRYLRFWGQGTQVTVSS
# notes: as for B1
# B14: Nb-15 (VHH)
# VHH: QVQLQESGGGSVQAGGSLRLSCVVFGNIFRNYCMAWFRQAPGKEREGVVVIYTGGGSTYYADSVKGRFTISQDNAKNTVYLQMNSLKHEDTAMYYCAADQTTRYSSDYVNVGPCDMDSWGKGTQVTVSS
# notes: as for B1
# B15: Nb-16 (VHH)
# VHH: QVQLQESGGGSVQAGGSLRLSCAASGYTYNKYSWGWFRQAPGKEREGVAGIDSDGSTSYADSVKGRFTISKDNTKNTLYLQMNSLKPEDTAMYYCAASDWVSAIQALGVLAVRPYEYWGQGTQVTVSS
# notes: as for B1
# B16: Nb-17 (VHH)
# VHH: QVQLQESGGGSAQAGGSLRLSCAASRYTSSSNAMGWFRQAPGKQREWVAGSDTGAGITCNAASVKGRFTISQDVAKNTVYLQMNSLKPEDTAVYYCAADWFRGAFCSGDADFRYWGQGTQVTVSS
# notes: as for B1
# B17: Nb-18 (VHH)
# VHH: QVQLQESGGGSVQTGGSLRLSCAASGLTSTTKYMGWFRQAPGKEREGVAGIYISSGATYYDDSVKGRFTISQDNAKNTVYLHINSLEPDDTAMYYCAASVLSVFRPLSSNQYHYWGQGTQVTVSS
# notes: as for B1
# B18: Nb-19 (VHH)
# VHH: QVQLQESGGGSVQAGGSLRLSCAASGFTYSNYCMAWFRQAPGKEREGVAAIDSDGSTSYADSVKGRFTISQDNAKNTLYLQMNSLKPEDTAMYYCAAGNKKPYQLCNTDSRRYYHWGQGTQVTVSS
# notes: as for B1
# B19: Nb-20 (VHH)
# VHH: QVQLQESGGGSVQAGGSLRLSCASSGYSRTSRWMAWFRQAPGKEREGVAAIYTGGSSTLYANSMADRVTISQDNAKNTVYLRMNNLKPEDTAMYYCAADKLAGDFWLVDRWRAWGQGTQVTVSS
# notes: as for B1
# B20: Nb-21 (VHH)
# VHH: QVQLQESGGGSVQAGGSLRLSCRTSGYTNNLKSMAWFRQAPGKEREAVASIHNNGGPTYDYYAESVKGRFAISQDNAKNTLYLQMSSAKPEDTAVYYCAADNRFLGSGSWRLPSLYNYWGQGTQVTVSS
# notes: as for B1
# B21: Nb-22 (VHH)
# VHH: QVQLQESGGGSVQAGGSLRLSCAASGYTFTTAYMGWFRQAPGKEREGVAAIDSDGRTEYADAVKGRFTISKDNAKNTLYLQMNSLKPEDTAMYYCAADKDDWLLLHGRSLFPSAFAYWGQGTQVTVSS
# notes: as for B1
# B22: Nb-03 (VHH)
# VHH: QVQLQESGGGSVQAGGSLRLSCAASGYTYSGYCMGWFRQAPGKEHEGVASIVSGLGRPYYADSVKGRFTISQDNAKNTVYLQMNSLKPEDTAMYYCAAEWATKLCSEIPATEWDYWGQGTQVTVSS
# notes: as for B1
# B23: hcIgG-04 (antibody, V domains shown)
# VH: B1 VHH
# notes: also called heavy-chain antibody of Nb-04
# Molecular target: T1, human GITR-His
# Assay: PE-ELISA, sample OD against reference OD
# Description: (§1) (2) crude antibodies were obtained by a conventional osmotic shock method, and the crude antibodies were transferred to an enzyme-labeled plate (Nunc) coated with the antigen GITR-His overnight, and incubated at room temperature for 1 h;
row,Binder,Ratio (+/-)
1,B1,22
2,B2,7.78
3,B3,21.5
4,B4,3.31
5,B5,32.6
6,B6,29.9
7,B7,23
8,B8,23.1
9,B9,20.7
10,B10,4.53
11,B11,3.29
12,B12,4
13,B13,6.23
14,B14,5.04
15,B15,20.7
16,B16,15.1
17,B17,9.8
18,B18,18.5
19,B19,12.2
20,B20,7.55
21,B21,10
22,B22,11.7

# Molecular target: T1, human GITR-His
# Assay: ForteBio BLI, antibody on AHQ tip, human GITR-His 100 nM in solution, 1:1 model
# Description: (2) Experimental procedure: 100 μl of SD buffer and antibodies (hcIgG-02, hcIgG-03, hcIgG-04, hcIgG-07, hcIgG-09, hcIgG-10, hcIgG-16 and hcIgG-20, control antibody), GITR-His (Acro biosystems) were added to a 96-well half-volume black polystyrene microplate. The plate was arranged according to the positions of the samples, the position of the sensor was selected, and the operation procedures were set as: Baseline, Loading ˜1 nm, Baseline, Association and Dissociation, each running for a time depending on the binding and dissociation rates of the sample, at a rotation speed of 400 rpm and a temperature of 30° C.
# (3) A 1:1 binding model was adopted for kinetic analysis.
Binder,Kd,koff,kon
B23,7.92 nM,0.00202 s⁻¹,256000 M⁻¹ s⁻¹

# Molecular target: T1, human GITR-His
# Assay: PE-ELISA, crude nanobody on coated GITR-His, anti-HA detection
# Description: as §1
# (3) unbound antibodies were washed off with PBST, then mouse anti-HA tag antibody (SinoBiological) was added, and placed at room temperature for 1 h;
row,Binder,Sample OD (+)
1,B1,1.63 OD (405 nm)
2,B2,0.552 OD (405 nm)
3,B3,1.41 OD (405 nm)
4,B4,0.314 OD (405 nm)
5,B5,2.35 OD (405 nm)
6,B6,2.27 OD (405 nm)
7,B7,1.71 OD (405 nm)
8,B8,1.45 OD (405 nm)
9,B9,1.43 OD (405 nm)
10,B10,0.444 OD (405 nm)
11,B11,0.263 OD (405 nm)
12,B12,0.46 OD (405 nm)
13,B13,0.467 OD (405 nm)
14,B14,1.25 OD (405 nm)
15,B15,1.67 OD (405 nm)
16,B16,1.04 OD (405 nm)
17,B17,1.01 OD (405 nm)
18,B18,1.32 OD (405 nm)
19,B19,1.41 OD (405 nm)
20,B20,0.522 OD (405 nm)
21,B21,0.606 OD (405 nm)
22,B22,0.786 OD (405 nm)
